We go through seven molecules from publication PMC12014896 (2025).

Positions count from the first letter of the chain named.

The target of the test is SARS-CoV-2 spike RBD (Wuhan-Hu-1) (Severe acute respiratory syndrome …, UniProt P0DTC2). Put plainly: SPR.

B1: COVIC-131 (antibody, V domains shown)
VH: EVQLVESGGGVVQPGRSLRLSCAASAFTFSSYDMHWVRQAPGKGLEWVAVISYDGSNKYYADSVKGRFTISRDNSKNTLYLQMNSLRAEDTAVYYCAKDGGKLWVYYFDYWGQGTTVTVSS
VL: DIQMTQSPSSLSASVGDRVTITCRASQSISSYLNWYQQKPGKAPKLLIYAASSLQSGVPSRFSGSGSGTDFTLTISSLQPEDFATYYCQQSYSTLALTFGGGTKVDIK
For B1, the Kd came out at 2.05 nM.

B2: COVIC-153 (antibody, V domains shown)
VH: EVQLVESGGGLIQPGGSLRLSCAASGLTVSSNYMSWVRQAPGKGLEWVSIIYSGGSTYYADSVKGRFTISRDNSKNTLYLQMNSLRAEDTAVYYCARLGGYYYYGMDVWGQGTTVTVSS
VL: DIQMTQSPSSLSASVGERVTITCQASQDIRNYLNWYQKKPGKAPKLLIYDSSNLETGVPSRFSGSGSGTDFTFTISSLQPEDIATYYCQQYDNLPITFGQGTRLEIKR
As to B2, binding was characterised by a dissociation constant (Kd) of 2.06 nM.

B3: COVIC-167 (antibody, V domains shown)
VH: B2 VH
VL: B2 VL with S65G
In turn, B3 returned a Kd of 1.87 nM.

B4: COVIC-93 (protein)
chain: MSSSSWLLLSLVAVTAAQSTIEEQVKTFLDKFNHEAEDLFYQCSLASWNYNTNITEENVQNMNNACDKWSAFLCEQSTLAQMYPLQEIQDLTVKLQLQALQQNGSCVLSEDKSKRLNTILNTMSTIYCTGKVCNPDNPQECLLLEPGLNEIMANSLDYNERLWAWESWRSEVGKQLRPLYEEYVVLKNEMARANHYEDYGDYWRGDYEVNGVDGYDYSRGQLIEDVEHTFEEIKPLYEHLHAYVRAKLMNAYPSYISPTGPLPAHLLGDMWGRFWTNLYSLTVPFGQKPNIDVTDAMVDQAWDAQRIFKEAEKFFVSVGLPNMTQGFWENSMLTDPGNGQKVCCYPTAWDLGKGDFRILMCTKVTMDDFLTAHHEMGHIQYDMAYAAQPFLLRNGANEGFHEAVGEIMSLSAATPKHLKSIGLLSPDFQEDNETEINFLLKQALTIVGTLPFTYMLEKWRWMVFKGEIPKDQWMKKWWEMKREIVGVVEPVPHDETYMDPASLFHVSNDYSFIRYYTRTLYQFQFQEALCQAAKHEGPLHKCDISNSTEAGQKLFNMLRLGKSEPWTLALENVVGAKNMNVRPLLNYFEPLFTWLKDQNKNSFVGWSTDWSPYADQSIKVRISLKSALGDKAYEWNDNEMYLFRSSVAYAMRQYFLKVKNQMILFGEEDVRVANLKPRISFNFFVTAPKNVSDITPRTEVEKAIRMSRSRINDCFRLNDNSLEFLGIQPTLGPPNQPPVECPPCPAPPVAGPSVFLFPPKPKDTLMISRTPEVTCVVVDVSHEDPEVQFNWYVDGVEVHNAKTKPREEQFNSTFRVVSVLTVVHQDWLNGKEYKCKVSNKGLPAPIEKTISKTKGQPREPQVYTLPPSREEMTKNQVSLTCLVKGFYPSDISVEWESNGQPENNYKTTPPMLDSDGSFFLYSKLTVDKSRWQQGNVFSCSVLHEALHSHYTQKSLSLSPGK
The molecule B4 showed a Kd of 0.431 nM.

B5: COVIC-149 (antibody, V domains shown)
VH: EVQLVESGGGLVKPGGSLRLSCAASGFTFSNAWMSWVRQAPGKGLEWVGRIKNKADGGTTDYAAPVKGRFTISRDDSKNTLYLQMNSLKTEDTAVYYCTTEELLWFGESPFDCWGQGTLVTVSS
VL: DIQLTQSPSFLSASVGDRVTITCWASQGINSYLAWYQQKPGKAPKLLIYAASTLQSGVPSRFSGSGSGTEFTLTISSLQPEDFTTYYCQQFNDYPRTFGPGTKVEIKR
Regarding B5, the Kd came to 22.3 nM.

B6: COVIC-160 (antibody, V domains shown)
VH: EVQLVESGGGLIQPGGSLRLSCAASGVTVSSNYMSWVRQAPGKGLEWVSVIYSGGSTFYADSVKGRFTISRDNSKNTLYLQMNSLRAEDTAVYYCARDLSYYGMDVWGQGTTVTVSS
VL: B5 VL with N30S, R61K, T84A, F91L, D93S, R96C, T97S, P100Q, V104L
For the molecule B6, the Kd stood at 14.7 nM.

B7: COVIC-142 (antibody, V domains shown)
VH: EVQLVESGGGLIQPGGSLRLSCAASGFTVSSNYMSWVRQAPGKGLEWVSVIYSGGSTYYADSVKGRFTISRDNSKNTLYLQMNSLRAEDTAVYYCARHITMVRGVIIYLKEWGQGTLVTVSS
VL: DIVMTQSPSSLSASVGDRVTITCQASQDISNYLNWYQQKPGKAPKLLIYDASNLETGVPSRFSGSGSGTDFTFTISSLQPEDIATYYCQQCDNLPITFGQGTRLEIK
The molecule B7 showed a Kd of 16.5 nM.

One may read the Kd as the constant that tells how readily two partners part at equilibrium. Read a high Kd as weaker binding.
